Biological target: human wild-type D3R (HASS-FLAG-EGFP-3C protease-D3R in pcDNA4/TO) (human) (UniProt P35462)
Chain of UniProt P35462 (P35462 whole entry): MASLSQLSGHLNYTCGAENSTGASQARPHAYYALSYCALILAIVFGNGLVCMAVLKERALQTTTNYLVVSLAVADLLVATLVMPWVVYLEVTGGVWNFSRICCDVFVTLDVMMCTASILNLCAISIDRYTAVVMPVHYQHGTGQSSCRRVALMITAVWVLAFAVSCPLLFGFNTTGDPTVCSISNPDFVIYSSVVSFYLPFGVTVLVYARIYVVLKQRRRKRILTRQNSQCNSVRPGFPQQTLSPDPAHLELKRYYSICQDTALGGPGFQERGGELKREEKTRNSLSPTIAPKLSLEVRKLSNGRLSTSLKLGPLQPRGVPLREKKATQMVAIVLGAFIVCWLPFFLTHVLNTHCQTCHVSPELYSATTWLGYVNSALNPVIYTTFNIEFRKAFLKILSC

potency of FOB02-04A at D3R in the TRUPATH BRET2 assay in HEK293T cells, GOA against Gi1: 135 fold
Substance: GαOA-RLuc8 (from UniProt P09471 1-354) (natural protein)

Source: publication PMC11377762
